The values below come from paper PMC7335425 (Cell, 2020).

Common to all, as to assay: negative stain EM
Data set [1] concerns the target LetB ΔPLL3 mutant, TM helix deleted (E. coli) (UniProt P76272).
Data set [2] deals with LetB six-ring truncation mutant (ring 6 removed), TM helix deleted (E. coli) (UniProt P76272).
Data set [3] concerns the target MCE protein with six MCE domains from Pseudomonas aeruginosa (Pseudomonas aeruginosa).
Data set [4] deals with LetB ΔPLL2 mutant, TM helix deleted (E. coli) (UniProt P76272).
Data set [5] concerns the molecule itself.

Numbering of substitutions follows the chain as printed. Names and notes keep the numbering of the source.

Take “LetB ΔPLL3 mutant, TM helix deleted (from UniProt P76272 43-877) (domain or fragment)”: the stoichiometry N (usually a count of units in the complex or per binding partner) in data set [1] turned out to be 6.
Molecule “LetB six-ring truncation mutant (ring 6 removed), TM helix deleted (from UniProt P76272 43-877) (domain or fragment)” had a stoichiometry N in data set [2] of 6.
On to “MCE protein with six MCE domains from Pseudomonas aeruginosa (natural protein)”, for which the stoichiometry N in data set [3] was found to be 6.
As to “LetB ΔPLL2 mutant, TM helix deleted (from UniProt P76272 43-877) (domain or fragment)”, the stoichiometry N in data set [4] stood at 6.

B1: LetB L243N, TM helix deleted (domain or fragment, E. coli, UniProt P76272 43-877, looked up)
chain: QDRGNTVTIDFMSADGIVPGRTPVRYQGVEVGTVQDISLSDDLRKIEVKVSIKSDMKDALREETQFWLVTPKASLAGVSGLDALVGGNYIGMMPGKGKEQDHFVALDTQPKYRLDNGDLMIHLQAPDLGSLNSGSLVYFRKIPVGKVYDYAINPNKQGVVIDVLIERRFTDLVKKGSRFWNVSGVDANVSISGAKVKLESNAALVNGAIAFDSPEESKPAEAEDTFGLYEDLAHSQRGVIIKLELPSGAGLTADSTPLMYQGLEVGQLTKLDLNPGGKVTGEMTVDPSVVTLLRENTRIELRNPKLSLSDANLSALLTGKTFELVPGDGEPRKEFVVVPGEKALLHEPDVLTLTLTAPESYGIDAGQPLILHGVQVGQVIDRKLTSKGVTFTVAIEPQHRELVKGDSKFVVNSRVDVKVGLDGVEFLGASASEWINGGIRILPGDKGEMKASYPLYANLEKALENSLSDLPTTTVSLSAETLPDVQAGSVVLYRKFEVGEVITVRPRANAFDIDLHIKPEYRNLLTSNSVFWAEGGAKVQLNGSGLTVQASPLSRALKGAISFDNLSGASASQRKGDKRILYASETAARAVGGQITLHAFDAGKLAVGMPIRYLGIDIGQIQTLDLITARNEVQAKAVLYPEYVQTFARGGTRFSVVTPQISAAGVEHLDTILQPYINVEPGRGNPRRDFELQEATITDSRYLDGLSIIVEAPEAGSLGIGTPVLFRGLEVGTVTGMTLGTLSDRVMIAMRISKRYQHLVRNNSVFWLASGYSLDFGLTGGVVKTGTFNQFIRGGIAFATPPGTPLAPKAQEGKHFLLQESEPKEWREWGTALPK
In the case of B1, in data set [5], the “stoichiometry N” value was found to be 6.

B2: LetB L358N, TM helix deleted (domain or fragment, E. coli, UniProt P76272 43-877, looked up)
chain: B1 chain with N201L, L316N
With B2, the “stoichiometry N” value in data set [5] turned out to be 6.

B3: LetB L359N, TM helix deleted (domain or fragment, E. coli, UniProt P76272 43-877, looked up)
chain: B1 chain with N201L, L317N
As for B3, in data set [5], the “stoichiometry N” value is 6.

B4: LetB L355N, TM helix deleted (domain or fragment, E. coli, UniProt P76272 43-877, looked up)
chain: B1 chain with N201L, L313N
B4: the “stoichiometry N” value in data set [5] is 6.

B5: LetB V247N, TM helix deleted (domain or fragment, E. coli, UniProt P76272 43-877, looked up)
chain: B1 chain with N201L, V205N
B5: in data set [5], the “stoichiometry N” value came to 6.

B6: LetB L246N, TM helix deleted (domain or fragment, E. coli, UniProt P76272 43-877, looked up)
chain: B1 chain with N201L, L204N
B6: the “stoichiometry N” value in data set [5] amounted to 6.

B7: LetB three-ring truncation mutant (rings 2, 3, 4 and 5 removed), TM helix deleted (domain or fragment)
chain: QDRGNTVTIDFMSADGIVPGRTPVRYQGVEVGTVQDISLSDDLRKIEVKVSIKSDMKDALREETQFWLVTPKASLAGVSGLDALVGGNYIGMMPGKGKEQDHFVALDTQPKYRLDNGGGQITLHAFDAGKLAVGMPIRYLGIDIGQIQTLDLITARNEVQAKAVLYPEYVQTFARGGTRFSVVTPQISAAGVEHLDTILQPYINVEPGRGNPRRDFELQEATITDSRYLDGLSIIVEAPEAGSLGIGTPVLFRGLEVGTVTGMTLGTLSDRVMIAMRISKRYQHLVRNNSVFWLASGYSLDFGLTGGVVKTGTFNQFIRGGIAFATPPGTPLAPKAQEGKHFLLQESEPKEWREWGTALPK
Consider B7, for which the “stoichiometry N” value in data set [5] came out at 6.

B8: LetB two-ring truncation mutant, TM helix deleted (domain or fragment)
chain: QDRGNTVTIDFMSADGIVPGRTPVRYQGVEVGTVQDISLSDDLRKIEVKVSIKSDMKDALREETQFWLVTPKASLAGVSGLDALVGGNYIGMMPGKGKEQDHFVALDTQPKYRLDNGDGLSIIVEAPEAGSLGIGTPVLFRGLEVGTVTGMTLGTLSDRVMIAMRISKRYQHLVRNNSVFWLASGYSLDFGLTGGVVKTGTFNQFIRGGIAFATPPGTPLAPKAQEGKHFLLQESEPKEWREWGTALPK
Turning to B8, the “stoichiometry N” value in data set [5] stood at 6.

B9: LetB four-ring mutant 1–3-4–7, TM helix deleted (domain or fragment)
chain: QDRGNTVTIDFMSADGIVPGRTPVRYQGVEVGTVQDISLSDDLRKIEVKVSIKSDMKDALREETQFWLVTPKASLAGVSGLDALVGGNYIGMMPGKGKEQDHFVALDTQPKYRLDNGRGVIIKLELPSGAGLTADSTPLMYQGLEVGQLTKLDLNPGGKVTGEMTVDPSVVTLLRENTRIELRNPKLSLSDANLSALLTGKTFELVPGDGEPRKEFVVVPGEKALLHEPDVLTLTLTAPESYGIDAGQPLILHGVQVGQVIDRKLTSKGVTFTVAIEPQHRELVKGDSKFVVNSRVDVKVGLDGVEFLGASASEWINGGIRILPGDKGEMKASYPLYANLEKALENSLSDLPTDGLSIIVEAPEAGSLGIGTPVLFRGLEVGTVTGMTLGTLSDRVMIAMRISKRYQHLVRNNSVFWLASGYSLDFGLTGGVVKTGTFNQFIRGGIAFATPPGTPLAPKAQEGKHFLLQESEPKEWREWGTALPK
With B9, the “stoichiometry N” value in data set [5] stood at 6.
